From the nanobody polyreactivity screen of Harvey et al. (2022)

Test: yeast display, Sf9 membrane polyspecificity reagent, FACS + sequencing; frameworks hold sequencing errors
In short: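 After 36–48 hours of galactose induction, yeast (Saccharomyces cerevisiae BJ5465) displaying a synthetic nanobody library were stained at 4 °C for 1 hour with 10% biotinylated, detergent-solubilized Sf9 membrane reagent. Streptavidin microbeads enriched the stained cells before FACS sorting into low and high (top ~1%) gates on anti-HA and streptavidin fluorescence. Each clone's polyreactivity label reflects its gate of origin.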

| Sequence | polyreactivity (PSR sort gate) |
| --- | --- |
| QVQLVESGGGLVQAGGSLRLSCAASGLTFSDYAMGWYRQAPGKEREFVAAITRNGASTRYADSVKGRFTISRDNAKNTVYLQMNRLKPEDTAVYYCSTDVGFGRKQRPHRPGYGYWGQGTQVTVSS | low polyreactivity |
| QVQLGESGGGLVQAGGSLRLSCAGSGRTFQHYFMGWYREAPGKDRELVASITNDDSTNYADSVKGLFTISRDNAKNTVYLQMNRLKPEDTAVYYCAADWTDVVPGYDYWGQGTQVTVSS | low polyreactivity |
| QVQLEESGGGLVQAGGSLRLSCAASGRTSLAYAMGWYRQATGKEMELVAGITSGGNTNYADSVKGRFTISCDNAKNTVYLQMNSLKPEDTAVYYCNKKKRWQWYSDSVLDYLGFYSWGQGTQVTVSS | low polyreactivity |
| QVQLVESGGGLVQAGGSLRLSCAASGSIFQWYAMGWYRQAPGKERELVAAISWDGDSTYYADSVKGRFTISRDNAKNTVYLQMNSMNPEDTAVYYCAADYEWEYEYWGQGTQVTVSS | high polyreactivity |
| QVQLVESGGGLDQAGGSLRLSCASSGIIFWWNTMGGYRQAPGQESEMVAAISTGGSTNYADSVKGRFTISRDNAKNTVYLQMNSLKPEDTAVYYCNADWTDGDWADMDYWGQGTQVTVSS | low polyreactivity |
| QVQLVESGGGLVQAGGSLRLSCAASGRIFIYNAMGWYRQAPGKERELVAAISSGGSTYYADSVKGRFTISRDNANNTVYLQMNSLKAEDTAVYYCAAPRGHGKYYSWGQGTQVTVSS | high polyreactivity |
| QVQLVESGGGLVQAGGSLRVICAASGIIFPIYAMGWYRQAPGKEWELVAGISTGGGGTYYADSVKGRFTISRDNAKNTVYLQKNSLKPEDTAVYYCNVDAAGSNSHARHDSWGQGTQVTVSS | low polyreactivity |
| QLQLVDSGGGLVQAGGSLRLSCAATGFTFYYYVMGWYRQAPGKETELVAAISSRGGSTYYADSVKGRFTISRDNAKNTVYLQMNSLKPEDTAVYYCAATYWPYRPGYYYWGQGTQVTVSS | high polyreactivity |
| QVQLVESGGGLVQAGGSLRLSCAASGSILDGNAMGWYRQAPGKERELVAAITRSGGRTYYADSVKGRFTISRDNAKNTVYLQMNSLKPEDTAVYYCNVDVPGVRFEYWGQGTQVTVSS | low polyreactivity |
| QVQLVESGGGLVQAGGSLRLSCAASGSTLGHNAMGWYRQAPGKERELVAGISWRGGSTYYADSVKGRFTISRDNAKNTVYLQMNSLKPEDTAVYYCAAVSYPAVYGFDYWGPGTQVTVSS | high polyreactivity |
| QVQLVESGGGIVQAGGRLRLSCAASGRIFYYNAMGWYRQAPGQERELVAVISRNGGRTYYADSVKGRFTISRDNAKNTVSFQMNSLKPEDTAVYYCAARSAGDRYDYWGQGTQVTVSS | high polyreactivity |
| QVQLVESGGGIVHEGGSLRLSCAASGSIFFGYAMGWYRLAPGKELELVAAISASGGLTFYADSLKGRFTISRDNAKNTVYLQMNSLKPEDPAVYYCAKRGRSTYGYDYWGQGTQVTVSS | high polyreactivity |
| QLQLVESGGGLVQAGGSLRLSCAASGRTFVYNVMGWYRQAPGKERELVAAISSGGSTNYADSVKGRFTNSRDNAKNTVYLQMNRLKPEDSAVYYCNAGTLNYRYRWGHYYDSWGQGTQVTVSS | low polyreactivity |
| QFQLVESGGGLVQAGGSLRLSCAASGITFYGNAKGWYRQAPGKVREFVAAITVDGGSTYAVSVKGRFTISRDNAKNTVYLQMNSLKPEDTAVYYCNKAYLRRSLKSGYPYDSWGQGTQVTVSS | low polyreactivity |
| QVQLVESGGGLVQAGGSLRISCAASVSTFWYYAMGWYIQAPRKERELVAPISRTGGGTYYADSVKGRFTISRDNAKNSVYLQMNSLKPEDTAVYYCARGSVYSDAQIYDYWGQGTQVTVSS | low polyreactivity |
| QVQLVESGGGLVQAGGSLRLSCAASGITFSRYGMGWYRQAPGKERELVAVISWRGGRTYYADSVKGRFTISRYNAKNTVYLHMNSLKPEDTAVYYCAADSRQSVYDYDYWGQGTQVTVSS | high polyreactivity |
| QVQLVESGGGLVQAGVRLRLSFAASGFTFRLYTMGWYRQAPGKERELVAAITYSGDSTYYADSVKGRFTISRDNAKNTVYLQMNSLKPEDTAVYYCAARKYYARYYWGQGTQVTVSS | high polyreactivity |
| QVQLVESGGGLVQAGGSLRLSCAASGRIVTAYAMGWYRPAPGKEREFVAAISSSGGSTYADSVKGRFTISRDNAKNTVYLQINSLKPEDTAVYYCAARYGFYWFPGYYYWGQGTQVTVSS | low polyreactivity |
| QVQLVESGGGLVQAGGSLRLSCAASGRIFDRYVMGWYRQAPVKERALVAAISDGGSTYYADSVKGRFTISRDNAKNTVYLQMISLKPEDTAVYYCNAAFYPNENYYLIYDYWGQGTQVTVSS | low polyreactivity |
| QVQLVESGGGLVQAGGSLRLSCAASGSIFGYYAMGWYRQAPGKERELVAAISWSGGRTYYADSVKGRFTISRDNAKNTVYLQMNSLKPEDTAVYYCNARWRSGPRAYDYWGQGTQVTVSS | high polyreactivity |
| QVQLVESGGGLVQAGGSLRISCAASGRTFARYVMGWYRQAPGKERELVAAISGGGGSTYYADSVKGRLTISRDTAKNTVFLQMNSLKPAETAVYYCAAVPEGPNTGDDANGLDYWGQGTQVTVSS | low polyreactivity |
| QVQLVESGGRLVQAGGSLRLSCAASGSTFPLYARGWCRQAPGKERELVAAITGGGGRTYYADSVKGRFTISRDNAKNTVYLQMNSLKPEDTGVYYCNAVVYLTNYWYDYWGQGTQVTVSS | low polyreactivity |

| Sequence | polyreactivity (PSR sort gate) |
| --- | --- |
| QVQLVESGGGLVQAGGSLRLSCAASGRTFPYYAMGWYRQAPGKERELVAAINGRGGSTYYSDSVKGRFTISRDNAKNTVYLQMNSLKPEDTAVYYCAARYESRYSRYGYWGQGTQVTVSS | high polyreactivity |
| QVQLVESGGGVVQAGGSLRLSCAASGSIFPINAMGWYRQAPGKERELVAAITSGGSTNYADSVKGRFTISRDNAKNTVYLQMNSLKPEDTAVYYCAADWRYWRWAFDYWGQGTQVTVSS | high polyreactivity |
| QVQLRESGAGGRQPAPELRGERQYFYWSADGLVSQAPGKEREFVAGIDRGTITNYADSVRGRFTISRDNAKKTVYLQMNSLKPEDTAVYYCAVPAYGDPSSYYWGQGTHVTVSS | high polyreactivity |
| QVQLVESGGGLVQAGGSLLLSCAASGSTYKYAMGWYRQAPGKERELVAVISSGGSTDDADSVKGRFTISRDNAKNTVYLQMNSLKPEDTAVYYCAADSGFVSIGSYYWGLGTQVTVSS | low polyreactivity |
| QVQLVESGGGLVQAGGSLRLSCAASGYIFGSYVMGGYRQAPGKERELVAAITRIGASTYYADSVKGRFTISRDNAKNTVYLQMNSLKPEDTAVYYCATDQGGYYENDYWGQGTQVTVSS | low polyreactivity |
| QVQLVESGGGLVQAGGSLRLSCAASGFIFSHNAMGWYRQAPGKERELVAAIDYIDGSTYYADSVKGRFTISRDNAKYTVYLQMNSLIPEDTAVYDCAADGLFYWWHYGYWGQGSQVTVSS | low polyreactivity |
| QVQLVESGGGLVQAGGILRLSCAASGSTFSYYAMGWYRQAPGKERELVARISKDTGSTYYADSVKGRFTISRDNAKNTVYLQMNSLKPEDTAVYYCAAELDYFPGYDYWGQGTQVTVSS | low polyreactivity |
| QVQLVDSGGGLVQAGGSLRLSCAASGITFSWYAMGWYRQAPGKERELVAAITRNGGSTYYADSVKGRFTISRDNAKNTVYLLMNSLKPEDTAVYYCNARKKYENYYWGQGTQVTVSS | high polyreactivity |
| QVKLVESGGGLVQAGGSLRLTCAASGSTFGPYAMGWYRQEPGKERELVSTITRNGGSTYYADSVKGRFTISRDNAKNTVYLQMNSLKPEDTAVYYCNAEGRWSSFTQRMDYWGQGTQVTVSS | low polyreactivity |
| QVQLVESGGGLVQAGGSLRLSCAASGLTFKYYAMGWYRQAPGKERELVAAISASGGRTSYADSVKGRFTISRDNAKNTFYLQMNSLKPEDTAVYYCNADITSSGPKSDYWGQGTQVTVSS | high polyreactivity |
| QVQLVESGGGLVQAGGRLRLTCAASGSIFGTYAMGWYRQAPGKERELVAAINSGDSTYYADSVKGRFTISRDNAKNTVYLQMNSLKPEDTAVYYCAAGRYWPGDYWGQGTQVTVSS | high polyreactivity |
| QVQLVESGGGFVQAGGSLRLSCAASGSTFHDYVMGWYRQAPGKERELVATIRRGASTYYADSVKGRFTISRDNEKNTVYLQMNSLIPEDTAVYYCAVPATGGYFSSEYDYWGQGTQVTVSS | low polyreactivity |
| QVQLGESVGGLVQAGGSLRLSCAASGFIIGYYAMGWYRPPPGTERELVAAISSTGGSTYYADSVKGRFTISRDNAKNTVYLQMNSLNPEDTAVYYCAKRFASYRYHPGYDYWGQGTQVTVSS | high polyreactivity |
| QVQLVESGGGLVQAGGSLRLSCAASGSTFTPYGMGWYRQAPGKERELVAAITVSGGRTYYADSVKGRFTISRDNAKNTVYLQMNSLKPEDTAVYYCAAVYLRGDGEYDYWGQGTQVTVSS | low polyreactivity |
| QVQLVESGGGLVQAGGSLRLSCAASGSTFSRNAMGWYRQAPGKERELVAAINYSGGITYYADSVKGRFTISRDNAKNTVYLQMNSLKPADTAVYYCAKRGIGDPGQHPLGFGYWGQGTQVTVSS | low polyreactivity |
| QVQLVESGGGLVQAGGSLRLSCAASGSTIPLYAMGWYRQAPGKERELVAAISRRGGRTYYADSVKGRFTISRDNAKNTVYLQMNSLKPEDTAVYYCATAVGSRVDYWGQGTQVTVSS | high polyreactivity |
| QVQLVESGGGLVQAGGSLRLSCAACGSIFPGYAMGWYRQAPGKERELVATIRWSSGSRTNYADSVKGRFTISRDNAKNTVYLQMNSLKPEDTAVYYCAAGSRRYKYDYWGQGTQVTVSS | high polyreactivity |
| QVQLVESGGGLVQAGGSLRLSCAASGSTFGSNAIGWYRQAPGKERELVAAISKRGGSTYYADSVKGRFTISRDNAKNTVYLQMNSLKPEDTAVYYCAVAYTPSRRYSAYSADRMDYWGQGTQVTVSS | high polyreactivity |
| QGQRVESGGGLVQAGGSLRLSCAASGFIFWDYDMVWYRQAPGKEREMVAAISDSGGDTYYADSVKGRFTISRDNSKNTVYLQMHSLKREDTAVIYCAADVELWVFRGQQFDYWGQGTQVTVSS | low polyreactivity |
| QVQLVESGGGLVQAGGSLRLICAASGSNFNPYAMGWYRQAPGKERELVAAINSGDSTNYADSVKGRFSISRDNAKNTLYLQMNSLKPEDTAVFYCANRYRRRYNYWGQGTQETVSS | high polyreactivity |
| QVQLVESGGGLVQAGGSLRLSCAASGFIFYKNAMGWYRQAPGKERELVAAITQRGGRTYYADSVKGRFTISRDNSKNTVYLQMNSLKPEDTAVYYCAAKALYGKQAWRYNYWGQGTQVTVSS | high polyreactivity |
